Laboratory results from US20260061032A1.

How the values were obtained:
[1] = biological target: hCD73 (human) (UniProt P21589); assay: cell-based or functional assay
[2] = biological target: membrane-bound human CD73 (human) (UniProt P21589); assay: cell-based or functional assay
[3] = biological target: cyCD73; assay: SPR, Biacore T200; binder captured on CM5 chip by human antibody capture kit, CD73 as analyte
[4] = biological target: hCD73 (human) (UniProt P21589); assay: as above
[5] = biological target: IL-2Rβγ on HEK-BLUE IL-2 reporter cells (UniProt P14784); assay: cell-based or functional assay
[6] = biological target: hIL-2Rαβγ on CTLL-2 cells (human) (UniProt P01589); assay: cell-based or functional assay
[7] = biological target: hIL-2Rα (human) (UniProt P01589); assay: SPR, Biacore T200; hIL-2Rα on CM5 chip through His capture kit, binder as analyte
[8] = biological target: hIL-2Rβ (human) (UniProt P14784); assay: SPR, Biacore T200; hIL-2Rβ as analyte; three-step format as the filing describes it
[9] = biological target: hIL-2Rβγ (human) (UniProt P14784); assay: SPR, Biacore T200; hIL-2Rβγ as analyte, single cycle kinetics; three-step format as the filing describes it
Chain of hIL-2Rβγ (human) (P14784 27-239, chain 1 of 2): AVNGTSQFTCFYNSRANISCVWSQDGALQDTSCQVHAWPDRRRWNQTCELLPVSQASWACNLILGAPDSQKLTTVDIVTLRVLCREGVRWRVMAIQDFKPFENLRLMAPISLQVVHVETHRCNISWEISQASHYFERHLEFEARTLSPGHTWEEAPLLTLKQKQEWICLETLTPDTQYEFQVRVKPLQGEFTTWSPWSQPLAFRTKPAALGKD
Chain of hIL-2Rβγ (human) (P31785 23-254, chain 2 of 2, further chain): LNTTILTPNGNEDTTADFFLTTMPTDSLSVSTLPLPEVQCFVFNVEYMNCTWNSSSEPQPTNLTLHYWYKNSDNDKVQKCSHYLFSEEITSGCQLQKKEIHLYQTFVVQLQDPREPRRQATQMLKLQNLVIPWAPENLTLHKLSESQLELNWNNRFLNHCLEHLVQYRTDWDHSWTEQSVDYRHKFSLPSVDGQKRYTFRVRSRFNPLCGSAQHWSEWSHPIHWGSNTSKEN

Chain of hCD73 (human) (P21589 27-549 limits assumed): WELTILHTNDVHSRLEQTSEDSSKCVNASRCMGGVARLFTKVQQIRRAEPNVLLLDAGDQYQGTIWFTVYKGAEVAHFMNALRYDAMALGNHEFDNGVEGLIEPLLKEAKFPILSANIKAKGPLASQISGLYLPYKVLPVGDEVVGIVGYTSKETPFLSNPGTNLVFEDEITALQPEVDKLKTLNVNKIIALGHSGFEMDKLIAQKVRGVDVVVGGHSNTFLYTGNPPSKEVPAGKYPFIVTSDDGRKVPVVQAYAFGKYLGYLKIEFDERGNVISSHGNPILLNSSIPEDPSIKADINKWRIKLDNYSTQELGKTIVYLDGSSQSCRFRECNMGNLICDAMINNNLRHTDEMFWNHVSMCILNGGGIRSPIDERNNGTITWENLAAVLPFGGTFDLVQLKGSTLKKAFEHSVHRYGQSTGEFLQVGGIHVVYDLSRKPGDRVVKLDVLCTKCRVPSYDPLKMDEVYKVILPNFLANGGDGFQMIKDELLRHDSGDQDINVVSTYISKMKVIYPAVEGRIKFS
Chain of hIL-2Rαβγ on CTLL-2 cells (human) (P01589 22-272, chain 1 of 3): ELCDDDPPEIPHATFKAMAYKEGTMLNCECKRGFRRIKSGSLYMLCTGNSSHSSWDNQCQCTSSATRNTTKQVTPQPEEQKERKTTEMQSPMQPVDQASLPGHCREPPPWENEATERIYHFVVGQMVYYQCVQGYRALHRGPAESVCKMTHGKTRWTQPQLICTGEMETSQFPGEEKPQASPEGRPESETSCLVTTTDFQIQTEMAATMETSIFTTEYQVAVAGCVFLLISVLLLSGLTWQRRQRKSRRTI
Chain of hIL-2Rαβγ on CTLL-2 cells (human) (P14784 27-551, chain 2 of 3, further chain): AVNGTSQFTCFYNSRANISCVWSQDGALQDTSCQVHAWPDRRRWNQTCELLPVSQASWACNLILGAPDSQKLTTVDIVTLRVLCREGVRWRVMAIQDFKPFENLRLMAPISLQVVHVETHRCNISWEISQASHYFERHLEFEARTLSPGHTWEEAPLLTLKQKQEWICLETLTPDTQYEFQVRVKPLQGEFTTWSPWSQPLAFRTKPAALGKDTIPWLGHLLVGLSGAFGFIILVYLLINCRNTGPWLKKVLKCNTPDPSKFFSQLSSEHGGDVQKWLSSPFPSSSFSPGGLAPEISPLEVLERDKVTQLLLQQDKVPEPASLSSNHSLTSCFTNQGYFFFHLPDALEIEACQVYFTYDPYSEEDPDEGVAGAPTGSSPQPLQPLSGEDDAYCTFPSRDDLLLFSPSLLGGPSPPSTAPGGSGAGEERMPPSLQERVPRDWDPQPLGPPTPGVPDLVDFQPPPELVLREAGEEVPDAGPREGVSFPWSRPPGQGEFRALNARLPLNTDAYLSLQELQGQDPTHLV
Chain of hIL-2Rαβγ on CTLL-2 cells (human) (P31785 23-369, chain 3 of 3, further chain): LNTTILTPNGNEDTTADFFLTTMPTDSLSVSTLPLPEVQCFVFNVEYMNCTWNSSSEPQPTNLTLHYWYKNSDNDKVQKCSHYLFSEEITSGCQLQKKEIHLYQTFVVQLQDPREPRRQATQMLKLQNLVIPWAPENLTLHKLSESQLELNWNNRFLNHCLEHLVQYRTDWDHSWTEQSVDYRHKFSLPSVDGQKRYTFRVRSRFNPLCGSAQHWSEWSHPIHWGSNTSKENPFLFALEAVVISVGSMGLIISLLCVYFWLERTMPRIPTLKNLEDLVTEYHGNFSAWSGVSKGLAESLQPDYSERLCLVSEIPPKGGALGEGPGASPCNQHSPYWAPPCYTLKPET
Chain of hIL-2Rα (human) (P01589 22-213): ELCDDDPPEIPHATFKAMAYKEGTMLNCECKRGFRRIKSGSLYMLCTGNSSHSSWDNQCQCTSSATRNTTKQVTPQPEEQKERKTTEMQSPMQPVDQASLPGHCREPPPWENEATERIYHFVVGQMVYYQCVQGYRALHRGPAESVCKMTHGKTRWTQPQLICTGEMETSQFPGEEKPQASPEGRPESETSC
Chain of hIL-2Rβ (human) (P14784 27-239): as the sequence (P14784 27-239, chain 1 of 2) above
Chain of IL-2Rβγ on HEK-BLUE IL-2 reporter cells (P14784 27-551, chain 1 of 2): as the sequence (P14784 27-551, chain 2 of 3, further chain) above
Chain of IL-2Rβγ on HEK-BLUE IL-2 reporter cells (P31785 23-369, chain 2 of 2, further chain): as the sequence (P31785 23-369, chain 3 of 3, further chain) above
Chain of membrane-bound human CD73 (human) (P21589 27-549 limits assumed): as the sequence (P21589 27-549 limits assumed) above

Substance | IC50, inhibition of soluble CD73 enzyme activity (AMP-Glo assay, recombinant human CD73) [1] [nM] | IC50, inhibition of membrane-bound CD73 enzyme activity on MDA-MB-231 cells (adenosine assay) [2] [nM] | Kd [3] [nM] | Kd [4] [nM] | EC50, SEAP reporter (JAK-STAT pathway activation) in HEK-BLUE IL-2 reporter cells [5] [nM] | EC50, CTLL-2 cell proliferation (WST-1 absorbance) [6] [nM] | Kd [7] [nM] | Kd [8] [nM] | Kd [9] [nM]
Oleclumab (Astrazeneca), produced on order from Ybiologics, Inc. (antibody) | 0.03 | 1.47 | 0.349 | 0.101 |  |  |  |  | 
Aldesleukin (trade name: PROLEUKIN, Novartis) (ligand) |  |  |  |  | 0.0103 | 0.08 | 49.6 | 2080 | 0.01
